Assay results published in article PMC9352680, “A comprehensive thermodynamic model for RNA binding by the Saccharomyces cerevisiae Pumilio protein PUF4”.

T1: PUF4 RNA-binding domain (Saccharomyces cerevisiae, UniProt P25339 537-888)
T1 sequence: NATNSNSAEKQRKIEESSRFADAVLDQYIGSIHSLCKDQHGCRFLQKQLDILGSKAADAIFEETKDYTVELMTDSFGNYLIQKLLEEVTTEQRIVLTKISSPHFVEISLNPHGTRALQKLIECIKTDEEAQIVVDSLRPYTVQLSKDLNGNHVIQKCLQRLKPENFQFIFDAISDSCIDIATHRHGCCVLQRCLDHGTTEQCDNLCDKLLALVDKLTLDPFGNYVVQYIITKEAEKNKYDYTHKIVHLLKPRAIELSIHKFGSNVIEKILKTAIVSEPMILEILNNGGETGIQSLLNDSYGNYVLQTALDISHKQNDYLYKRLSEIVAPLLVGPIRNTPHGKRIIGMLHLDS

B1: Ib_S1_P4E.1_K4.1_C4.1_H4.1_[A4T]_A4.1_[T5A]_F4.1_T4.1 (ssRNA)
RNA: UCUCUUUGUUAAUUAUCUCUU
B2: Id_ii_S1_P4E.3_K4.2_C4.2_[C-2T]_[T-1C]_H4.2_A4.1_F4.1_T4.2_[G10A]_[T11G] (ssRNA)
RNA: UCUCUUUCUAUAUAUUAAGUCUCUU
B3: Id_ii_S1_P4E.3_K4.2_C4.2_[C-2T]_H4.2_A4.1_F4.1_T4.2_[G10T]_[T11A] (ssRNA)
RNA: UCUCUUUUUAUAUAUUAUAUCUCUU
B4: Id_ii_S1_P4E.3_K4.2_C4.2_[C-2A]_[T-1A]_H4.2_A4.1_F4.1_T4.2_[G10C] (ssRNA)
RNA: UCUCUUAAUAUAUAUUACUUCUCUU
B5: Id_ii_S1_P4E.3_K4.2_C4.2_[C-2T]_H4.2_A4.1_F4.1_T4.2_[G10A]_[T11G] (ssRNA)
RNA: UCUCUUUUUAUAUAUUAAGUCUCUU
B6: Id_ii_S1_P4E.3_K4.2_C4.2_[C-2A]_[T-1A]_H4.2_A4.1_F4.1_T4.2_[G10T] (ssRNA)
RNA: UCUCUUAAUAUAUAUUAUUUCUCUU
B7: Id_ii_S1_P4E.3_K4.2_C4.2_[C-2A]_[T-1A]_H4.2_A4.1_F4.1_T4.2_[G10C]_[T11C] (ssRNA)
RNA: UCUCUUAAUAUAUAUUACCUCUCUU
B8: Id_ii_S1_P4E.3_K4.2_C4.2_[C-2A]_[T-1A]_H4.2_A4.1_F4.1_T4.2_[G10T]_[T11C] (ssRNA)
RNA: UCUCUUAAUAUAUAUUAUCUCUCUU
B9: Id_ii_S1_P4E.3_K4.2_C4.2_[C-2A]_[T-1C]_H4.2_A4.1_F4.1_T4.2_[G10T]_[T11G] (ssRNA)
RNA: UCUCUUACUAUAUAUUAUGUCUCUU
B10: Id_ii_S1_P4E.3_K4.2_C4.2_[C-2T]_[T-1A]_H4.2_A4.1_F4.1_T4.2_[G10C]_[T11G] (ssRNA)
RNA: UCUCUUUAUAUAUAUUACGUCUCUU
B11: Id_ii_S1_P4E.3_K4.2_C4.2_[C-2T]_H4.2_A4.1_F4.1_T4.2_[T11G] (ssRNA)
RNA: UCUCUUUUUAUAUAUUAGGUCUCUU
B12: Id_ii_S1_P4E.3_K4.2_C4.2_[C-2T]_[T-1C]_H4.2_A4.1_F4.1_T4.2_[G10C]_[T11A] (ssRNA)
RNA: UCUCUUUCUAUAUAUUACAUCUCUU
B13: Id_ii_S1_P4E.3_K4.2_C4.2_[C-2T]_[T-1C]_H4.2_A4.1_F4.1_T4.2_[G10T]_[T11C] (ssRNA)
RNA: UCUCUUUCUAUAUAUUAUCUCUCUU
B14: Id_ii_S1_P4E.3_K4.2_C4.2_[C-2T]_H4.2_A4.1_F4.1_T4.2_[G10C]_[T11C] (ssRNA)
RNA: UCUCUUUUUAUAUAUUACCUCUCUU
B15: Id_ii_S1_P4E.3_K4.2_C4.2_[C-2T]_[T-1A]_H4.2_A4.1_F4.1_T4.2_[G10A]_[T11A] (ssRNA)
RNA: UCUCUUUAUAUAUAUUAAAUCUCUU
B16: Id_ii_S1_P4E.3_K4.2_C4.2_[C-2A]_[T-1C]_H4.2_A4.1_F4.1_T4.2_[G10T] (ssRNA)
RNA: UCUCUUACUAUAUAUUAUUUCUCUU
B17: Id_ii_S1_P4E.3_K4.2_C4.2_[C-2A]_[T-1C]_H4.2_A4.1_F4.1_T4.2_[G10C] (ssRNA)
RNA: UCUCUUACUAUAUAUUACUUCUCUU
B18: Id_ii_S1_P4E.3_K4.2_C4.2_[C-2T]_H4.2_A4.1_F4.1_T4.2_[G10T]_[T11G] (ssRNA)
RNA: UCUCUUUUUAUAUAUUAUGUCUCUU
B19: Id_ii_S1_P4E.3_K4.2_C4.2_[C-2T]_H4.2_A4.1_F4.1_T4.2_[G10C] (ssRNA)
RNA: UCUCUUUUUAUAUAUUACUUCUCUU
B20: Id_ii_S1_P4E.3_K4.2_C4.2_[C-2T]_[T-1C]_H4.2_A4.1_F4.1_T4.2_[G10T] (ssRNA)
RNA: UCUCUUUCUAUAUAUUAUUUCUCUU
B21: Id_ii_S1_P4E.3_K4.2_C4.2_[C-2T]_H4.2_A4.1_F4.1_T4.2_[G10A] (ssRNA)
RNA: UCUCUUUUUAUAUAUUAAUUCUCUU
B22: Id_ii_S1_P4E.3_K4.2_C4.2_[C-2T]_[T-1C]_H4.2_A4.1_F4.1_T4.2_[G10C]_[T11C] (ssRNA)
RNA: UCUCUUUCUAUAUAUUACCUCUCUU
B23: Id_ii_S1_P4E.3_K4.2_C4.2_[C-2A]_[T-1A]_H4.2_A4.1_F4.1_T4.2_[T11C] (ssRNA)
RNA: UCUCUUAAUAUAUAUUAGCUCUCUU
B24: Id_ii_S1_P4E.3_K4.2_C4.2_[C-2A]_[T-1C]_H4.2_A4.1_F4.1_T4.2_[G10A] (ssRNA)
RNA: UCUCUUACUAUAUAUUAAUUCUCUU
B25: Id_ii_S1_P4E.3_K4.2_C4.2_[C-2A]_[T-1G]_H4.2_A4.1_F4.1_T4.2_[G10T]_[T11C] (ssRNA)
RNA: UCUCUUAGUAUAUAUUAUCUCUCUU
B26: Id_ii_S1_P4E.3_K4.2_C4.2_[C-2T]_[T-1A]_H4.2_A4.1_F4.1_T4.2_[G10C]_[T11A] (ssRNA)
RNA: UCUCUUUAUAUAUAUUACAUCUCUU
B27: Id_ii_S1_P4E.3_K4.2_C4.2_[C-2A]_[T-1C]_H4.2_A4.1_F4.1_T4.2_[G10A]_[T11A] (ssRNA)
RNA: UCUCUUACUAUAUAUUAAAUCUCUU
B28: Id_ii_S1_P4E.3_K4.2_C4.2_[C-2T]_[T-1A]_H4.2_A4.1_F4.1_T4.2_[G10C] (ssRNA)
RNA: UCUCUUUAUAUAUAUUACUUCUCUU
B29: Id_ii_S1_P4E.3_K4.2_C4.2_[C-2A]_H4.2_A4.1_F4.1_T4.2_[G10C]_[T11A] (ssRNA)
RNA: UCUCUUAUUAUAUAUUACAUCUCUU
B30: Id_ii_S1_P4E.3_K4.2_C4.2_[C-2T]_[T-1A]_H4.2_A4.1_F4.1_T4.2_[T11C] (ssRNA)
RNA: UCUCUUUAUAUAUAUUAGCUCUCUU
B31: Id_ii_S1_P4E.3_K4.2_C4.2_[C-2T]_[T-1C]_H4.2_A4.1_F4.1_T4.2_[G10C] (ssRNA)
RNA: UCUCUUUCUAUAUAUUACUUCUCUU
B32: Ib_S1_P4E.1_K4.1_C4.1_H4.1_[A4C]_A4.1_[A6T]_F4.1_T4.1 (ssRNA)
RNA: UCUCUUUGUCUUUUAUCUCUU

Each binder was assayed against T1, PUF4 RNA-binding domain (assay: Mg; RNA-MaP; 20 mM Na-HEPES pH 7.4, 30 mM KOAc, 0.75 mM MgCl2, 0.1% Tween-20, 5% glycerol, 0.1 mg/mL BSA, 2 mM DTT; 25 C; 0.0125-409.6 nM protein). Conditions: tags: N-His6-TEV cleaved; C-SNAP kept, Cy3B-labelled; label: tethered on chip by stalled RNA polymerase.

Row | Binder | Kd [nM]
1 | B1 | 43.5
2 | B2 | 130
3 | B3 | 22.2
4 | B4 | 56.4
5 | B5 | 485
6 | B6 | 54.1
7 | B7 | 76.2
8 | B8 | 79.9
9 | B9 | 22.5
10 | B10 | 21.9
11 | B11 | 22.6
12 | B12 | 23.1
13 | B13 | 17.2
14 | B14 | 26.2
15 | B15 | 38.1
16 | B16 | 25.9

Row | Binder | Kd [nM]
17 | B17 | 26.2
18 | B18 | 17.9
19 | B19 | 21
20 | B20 | 21.6
21 | B21 | 28.9
22 | B22 | 25.2
23 | B23 | 38.8
24 | B24 | 37.5
25 | B25 | 43
26 | B26 | 28.9
27 | B27 | 87.3
28 | B28 | 20.6
29 | B29 | 42.9
30 | B30 | 12.7
31 | B31 | 23.8
32 | B32 | 333
